In publication PMC7432781, “An EPR Study on the Interaction between the Cu(I) Metal Binding Domains of ATP7B and the Atox1 Metallochaperone” (International Journal of Molecular Sciences, 2020):
*: point of attachment. MTSL = MTSL nitroxide spin label (R1), CC1(C)C=C(CS*)C(C)(C)N1[O]

T1: ATP7B metal binding domains 4-6, spin-labeled (human, UniProt P35670 356-633, MTSL nitroxide spin label (R1) on C358, C431 and C490)
T1 construct: No residue limits are printed; the printed primers translate to a start at GTCSTTL and an end at FHASLAQ followed by a stop codon; Printed mass 29.2 kDa; also called MBD4-6; ATP7B 4-6 domains; source: E. coli Origami 2, purified (chitin bead column, intein self-cleavage with DTT)
T1 sequence (looked up): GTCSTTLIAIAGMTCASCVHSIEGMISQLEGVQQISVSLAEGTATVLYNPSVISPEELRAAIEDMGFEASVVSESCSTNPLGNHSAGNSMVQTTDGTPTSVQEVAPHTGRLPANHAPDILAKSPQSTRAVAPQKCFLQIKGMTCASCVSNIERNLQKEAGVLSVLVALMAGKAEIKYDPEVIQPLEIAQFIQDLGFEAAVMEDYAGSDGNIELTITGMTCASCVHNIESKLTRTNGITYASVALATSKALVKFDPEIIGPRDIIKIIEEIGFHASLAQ

B1: Atox1 metallochaperone, wild-type, non spin-labeled (natural protein, human)
chain: MPKHEFSVDMTCGGCAEAVSRVLNKLGGVKYDIDLPNKKVCIESEHSMDTLLATLKKTGKTVSYLGLE
notes: Atox1 copper metallochaperone, human, wild type
B2: Atox1 metallochaperone, spin-labeled at C41 (natural protein, human)
chain: MPKHEFSVDMTCGGCAEAVSRVLNKLGGVKYDIDLPNKKVC(MTSL)IESEHSMDTLLATLKKTGKTVSYLGLE
notes: Atox1 copper metallochaperone, human; also called sl-Atox1; spin-labeled Atox1

Target: T1, ATP7B metal binding domains 4-6, …
Assay: CW-EPR of spin-labeled proteins; X-band, room temperature (292 ± 5 K), in solution; Atox1 or sl-Atox1 added to spin-labeled MBDs at 1:1 (Atox1:MBD); with and without Cu(I); spin-labeled protein 0.01-0.03 mM
Conditions: both partners purified

Binder | binding result
B1 | binds
B2 | binds
